Experimental findings from paper PMC9628495 are described below.

A word on the Kd: it is the free concentration of one partner at which half of the binding sites on the other are occupied at equilibrium, for simple one-to-one binding.

For assay [1], the target named is PFc29 (Q311R/M428L) Fc variant displayed on the E. coli inner membrane (human). Put plainly: flow cytometry on cells; single clones rescued from the fourth round of screening, Fc displayed on E. coli spheroplasts, fluorescent hFcRn probe; screening at pH 5.8, pH of the clone analysis not stated; mean fluorescence intensity. Background: In flow cytometry, cells or beads pass a laser one at a time.

In assay [2] the target is PFc41 (L309G/M428L) Fc variant displayed on the E. coli inner membrane (human). Described as above.
The target in assay [3] is EFc41 (P228L/L234F/E269D/Q342L/E388D/T394A/M428L) Fc variant displayed on the E. coli inner membrane (human). Described as above.
Assay [4] addresses trastuzumab (wild-type Fc, prepared in-house) (human). As to the kind of experiment: SPR; Biacore T200; HER2 amine-coupled on a CM5 chip (~3000 RU), trastuzumab-Fc variants captured on it (~300 RU), hFcRn injected at 1000, 500, 250, 125 and 62.5 nM in PBS (printed '10x') with 0.05% Tween 20, pH 6.0, 50 μl/min; 1:1 binding model; 'Steady state' for trastuzumab with wild-type Fc. In general terms: SPR reads the build-up and loss of mass on a sensor chip optically.

Assay [5] concerns the target trastuzumab-PFc29 (Q311R/M428L) (human). The description is as above.
In assay [6] the target is trastuzumab-PFc41 (L309G/M428L) (human). Described as above.
The target in assay [7] is trastuzumab-LS (M428L/N434S) (human). Described as above.
The target in assay [8] is trastuzumab-YTE (M252Y/S254T/T256E) (human). The assay is described as above.
Assay [9] concerns the target human complement C1q (human) (UniProt P02745).
Assay [10] addresses human FcγRIIIa-158V-GST (dimeric GST-fused form) (human).
For assay [11], the target named is hFcRn-SA-Alexa 488, P55899;P61769. Put plainly: flow cytometry (FACS) of E. coli spheroplasts displaying Fc. The note with it: 40 nM hFcRn-SA-Alexa 488, read off a plot.
Where [12] appears, read: pH 5.8 in the image key (pH 6.0 in the legend), parent: est. 300.

human FcγRIIIa-158V-GST (dimeric GST-fused form) (human), sequence (P08637 17-208): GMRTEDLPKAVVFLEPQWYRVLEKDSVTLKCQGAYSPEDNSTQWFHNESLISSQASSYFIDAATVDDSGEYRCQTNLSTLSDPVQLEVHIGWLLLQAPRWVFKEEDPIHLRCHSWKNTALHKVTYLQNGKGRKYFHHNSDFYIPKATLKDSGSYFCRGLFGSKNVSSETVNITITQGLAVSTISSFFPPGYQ
UniProt P02745, sequence (P02745 23-245, chain 1 of 3): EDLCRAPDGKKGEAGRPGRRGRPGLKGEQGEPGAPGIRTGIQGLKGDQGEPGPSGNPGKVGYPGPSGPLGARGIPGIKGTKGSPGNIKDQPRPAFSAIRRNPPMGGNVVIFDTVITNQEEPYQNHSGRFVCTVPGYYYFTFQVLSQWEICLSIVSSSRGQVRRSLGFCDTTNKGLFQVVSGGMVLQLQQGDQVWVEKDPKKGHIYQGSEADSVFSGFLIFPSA
UniProt P02745, sequence (P02746 28-253, chain 2 of 3, further chain): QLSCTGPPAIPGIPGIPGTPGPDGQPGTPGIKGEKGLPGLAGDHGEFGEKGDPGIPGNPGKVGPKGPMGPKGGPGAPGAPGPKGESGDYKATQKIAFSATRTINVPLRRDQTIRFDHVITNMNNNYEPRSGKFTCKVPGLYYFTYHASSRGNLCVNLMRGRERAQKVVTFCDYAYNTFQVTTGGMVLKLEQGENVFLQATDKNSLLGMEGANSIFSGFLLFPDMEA
UniProt P02745, sequence (P02747 29-245, chain 3 of 3, further chain): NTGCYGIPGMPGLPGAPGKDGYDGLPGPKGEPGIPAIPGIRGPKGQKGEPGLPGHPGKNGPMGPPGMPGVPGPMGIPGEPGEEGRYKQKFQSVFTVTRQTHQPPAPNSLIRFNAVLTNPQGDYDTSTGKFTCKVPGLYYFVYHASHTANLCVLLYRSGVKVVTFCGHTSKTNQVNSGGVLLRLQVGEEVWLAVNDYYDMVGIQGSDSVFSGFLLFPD

With “Alexa 488-labelled hFcRn probe (FcRn-GST or FcRn-streptavidin) (from UniProt P55899 24-297; P61769 21-119) (complex)”, the MFI in assay [1] was 1180; in assay [2] it was 1910; in assay [3], 862. Consider “monomeric human FcRn (human FcRn α chain-His complexed with human β2-microglobulin) (from UniProt P55899 24-297; P61769 21-119)”, for which the dissociation constant Kd in assay [4] turned out to be 647 nM; in [5], 149 nM; in [6], 198 nM; in assay [7], 81.6 nM; in [8], 147 nM. On to “rituximab (wild-type Fc, prepared in-house) (antibody)”, for which the EC50 of CDC (lysis of Raji cells with normal human complement) in [9] was found to be 0.33 µg/mL. With “trastuzumab (wild-type Fc, prepared in-house) (antibody)”, in [10], the EC50 of ADCC (ADCC Reporter Bioassay; SKBR-3 target cells, FcγRIIIa-158V-expressing engineered Jurkat effector cells; luminescence) was 0.12 µg/mL. On the same count and under the same terms, for trastuzumab-LS (M428L/N434S) (antibody) the value was 0.061 µg/mL; for “trastuzumab-PFc29 (Q311R/M428L) (antibody)”, 0.051 µg/mL. As for “wild-type Fc displayed on the E. coli inner membrane M428L”, the response in [11] (setting [12]) stood at 430 MFI; in [11] (pH 7.4, parent: est. 30) it was 70 MFI.

For the substance “wild-type Fc displayed on the E. coli inner membrane Q311R”, the response was found to be 280 MFI in assay [11] (setting [12]) and 40 MFI in assay [11] (pH 7.4, parent: est. 30). For the substance “wild-type Fc displayed on the E. coli inner membrane Q311R; M428L”, in assay [11] (pH 7.4, parent: est. 30), the response was determined as 80 MFI.
